Target: Tat translocon (TatABC) in inverted membrane vesicles (E. coli) (UniProt P69428)
Experiment: co-sedimentation

Sequence of Tat translocon (TatABC) in inverted membrane vesicles (E. coli) (P69428 whole entry, chain 1 of 3): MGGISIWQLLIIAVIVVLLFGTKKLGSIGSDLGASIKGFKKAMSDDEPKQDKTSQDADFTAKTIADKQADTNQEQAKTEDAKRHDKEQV
Sequence of Tat translocon (TatABC) in inverted membrane vesicles (E. coli) (P69425 whole entry, chain 2 of 3, further chain): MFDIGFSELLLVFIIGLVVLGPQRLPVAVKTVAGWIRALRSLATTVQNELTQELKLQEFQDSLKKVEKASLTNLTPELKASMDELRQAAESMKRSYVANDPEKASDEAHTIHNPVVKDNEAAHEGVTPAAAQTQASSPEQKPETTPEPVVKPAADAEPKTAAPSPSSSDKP
Sequence of Tat translocon (TatABC) in inverted membrane vesicles (E. coli) (P69423 whole entry, chain 3 of 3, further chain): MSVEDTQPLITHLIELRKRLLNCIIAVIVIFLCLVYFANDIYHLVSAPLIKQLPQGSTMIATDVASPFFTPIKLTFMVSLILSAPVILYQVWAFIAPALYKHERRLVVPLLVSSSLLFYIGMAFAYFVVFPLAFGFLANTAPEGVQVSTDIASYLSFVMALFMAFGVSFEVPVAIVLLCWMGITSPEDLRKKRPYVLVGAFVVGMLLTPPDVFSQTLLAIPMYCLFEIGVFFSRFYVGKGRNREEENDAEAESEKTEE

| Substance | percent decrease of precursor bound to the Tat machinery from 0.05 to 1 M KCl [%] | percent inhibition of translocon binding by 1 M urea [%] | amount bound to the Tat machinery (8.3 pmol added) [pmol] | amount of precursor added at which translocon binding saturates [pmol] |
| --- | --- | --- | --- | --- |
| pre-SufI (from UniProt P26648 28-470) (natural protein) | 35 | 75 |  |  |
| spTorA-GFP |  |  | 0.5 | 4 |

— article PMC2770089
